B1: 22166 (protein)
chain: MALPVTALLLPLALLLHAARPEVQLQESGGGLVQPGGSLRLSCAASGRTFSSLFMGWFRQAPGKERELVAAISRYSLYTYYADSVKGRFTISADNAKNAVYLQMNSLKPEDTAVYYCASKLEYTSNDYDSWGQGTQVTVSSGTGGGGSGGGGSGGGGSEFDIQMTQSPSSLSASVGDRVTITCKASDHINNWLAWYQQKPGQAPKLLIYGATTLETGVPSRFSGSGSGTDYTLTISSLQPEDFATYYCQQSWNTPWTFGQGTKLEIKRLEIQNPDPAVYQLRDSKSSDKSVCLFTDFDSQTNVSQSKDSDVYITDKCVLDMRSMDFKSNSAVAWSNKSDFACANAFNNSIIPEDTFFPSSDVPCDVKLVEKSFETDTNLNFQNLSVIGFRILLLKVAGFNLLMTLRLWSSRAKRSGSGVKQTLNFDLLKLAGDVESNPGPTSATMDWIWRILFLVGAATGAHSGPQVQLQESGGGLAQAGGSLRLSCAASGRTFSMGWFRQAPGKEREFVAAITYSGGSPYYASSVRGRFTISRDNAKNTVYLQMNSLKPEDTAVYYCAANPTYGSDWNAENWGQGTQVTVSSGSGGGGSGGGGSGGGGSFEQVQLQQPGAELVKPGASVKMSCKASGYAFSSYWINWMKQKPGQGLEWIGQIYPGDGDTNYNGKFKGRATLTADTSSSTAYMQLSSLTSEDSAVYFCARSITTVVGCAMDYWGQGTSVTVSSTREDLKNVFPPEVAVFEPSKAEIAHTQKATLVCLATGFYPDHVELSWWVNGKEVHSGVCTDPQPLKEQPALNDSRYCLSSRLRVSATFWQNPRNHFRCQVQFYGLSENDEWTQDRAKPVTQIVSAEAWGRADCGITSASYHQGVLSATILYEILLGKATLYAVLVSALVLMAMVKRKDSRGRAKRSGSGATNFSLLKQAGDVEENPGPSRGHMTEYKPTVRLATRDDVPRAVRTLAAAFADYPATRHTVDPDRHIERVTELQELFLTRVGLDIGKVWVADDGAAVAVWTTPESVEAGAVFAEIGPRMAELSGSRLAAQQQMEGLLAPHRPKEPAWFLATVGVSPDHQGKGLGSAVVLPGVEAAERAGVPAFLETSAPRNLPFYERLGFTVTADVEVPEGPRTWCMTRKPGA
B2: 22177 (protein)
chain: MALPVTALLLPLALLLHAARPLFNQEVQIPLTESYCGPCPKNWICYKNNCYQFFDESKNWYESQASCMSQNASLLKVYSKEDQDLLKLVKSYHWMGLVHIPTNGSWQWEDGSILSPNLLTIIEMQKGDCALYASSFKGYIENCSTPNTYICMQRTVGGGGSGGGGSGGGGSDLFNQEVQIPLTESYCGPCPKNWICYKNNCYQFFDESKNWYESQASCMSQNASLLKVYSKEDQDLLKLVKSYHWMGLVHIPTNGSWQWEDGSILSPNLLTIIEMQKGDCALYASSFKGYIENCSTPNTYICMQRTVGTGGGGSGGGGSGGGGSEFDIQMTQSPSSLSASVGDRVTITCKASDHINNWLAWYQQKPGQAPKLLIYGATTLETGVPSRFSGSGSGTDYTLTISSLQPEDFATYYCQQSWNTPWTFGQGTKLEIKRLEDLKNVFPPEVAVFEPSKAEIAHTQKATLVCLATGFYPDHVELSWWVNGKEVHSGVCTDPQPLKEQPALNDSRYCLSSRLRVSATFWQNPRNHFRCQVQFYGLSENDEWTQDRAKPVTQIVSAEAWGRADCGITSASYHQGVLSATILYEILLGKATLYAVLVSALVLMAMVKRKDSRGRAKRSGSGATNFSLLKQAGDVEENPGPTSATMDWIWRILFLVGAATGAHSGPQVQLQESGGGLAQAGGSLRLSCAASGRTFSMGWFRQAPGKEREFVAAITYSGGSPYYASSVRGRFTISRDNAKNTVYLQMNSLKPEDTAVYYCAANPTYGSDWNAENWGQGTQVTVSSGSGGGGSGGGGSGGGGSFEQVQLQQPGAELVKPGASVKMSCKASGYAFSSYWINWMKQKPGQGLEWIGQIYPGDGDTNYNGKFKGRATLTADTSSSTAYMQLSSLTSEDSAVYFCARSITTVVGCAMDYWGQGTSVTVSSTRIQNPDPAVYQLRDSKSSDKSVCLFTDFDSQTNVSQSKDSDVYITDKCVLDMRSMDFKSNSAVAWSNKSDFACANAFNNSIIPEDTFFPSSDVPCDVKLVEKSFETDTNLNFQNLSVIGFRILLLKVAGFNLLMTLRLWSSRAKRSGSGVKQTLNFDLLKLAGDVESNPGPSRGHMTEYKPTVRLATRDDVPRAVRTLAAAFADYPATRHTVDPDRHIERVTELQELFLTRVGLDIGKVWVADDGAAVAVWTTPESVEAGAVFAEIGPRMAELSGSRLAAQQQMEGLLAPHRPKEPAWFLATVGVSPDHQGKGLGSAVVLPGVEAAERAGVPAFLETSAPRNLPFYERLGFTVTADVEVPEGPRTWCMTRKPGA
B3: 21882 (protein)
chain: MALPVTALLLPLALLLHAARPDIQMTQSPSSLSASVGDRVTITCKASQDVGTAVDWYQQKPGKAPKLLISWASTRHTGVPSRFSGSGSGTDFTLTISSLQPEDFATYFCQQYNSYPLTFGQGTKVEIKRTVLEDLKNVFPPEVAVFEPSEAEISHTQKATLVCLATGFYPDHVELSWWVNGKEVHSGVCTDPQPLKEQPALNDSRYCLSSRLRVSATFWQNPRNHFRCQVQFYGLSENDEWTQDRAKPVTQIVSAEAWGRADCGFTSESYQQGVLSATILYEILLGKATLYAVLVSALVLMAMVKRKDSRGRAKRSGSGATNFSLLKQAGDVEENPGPTSMDWIWRILFLVGAATGAHSFEVQLVESGGGLVQPGGSLRLSCAASGFTFTDYTIHWVRQAPGKGLEWVANINPNNGGTTYNQKFEDRFTISRDNSKNTLYLQMNSLRAEDTAVYYCARGWNFDYWGQGTLVTVSSTRIQNPDPAVYQLRDSKSSDKSVCLFTDFDSQTNVSQSKDSDVYITDKCVLDMRSMDFKSNSAVAWSNKSDFACANAFNNSIIPEDTFFPSPESSCDVKLVEKSFETDTNLNFQNLSVIGFRILLLKVAGFNLLMTLRLWSSRAKRSGSGVKQTLNFDLLKLAGDVESNPGPSRGHMTEYKPTVRLATRDDVPRAVRTLAAAFADYPATRHTVDPDRHIERVTELQELFLTRVGLDIGKVWVADDGAAVAVWTTPESVEAGAVFAEIGPRMAELSGSRLAAQQQMEGLLAPHRPKEPAWFLATVGVSPDHQGKGLGSAVVLPGVEAAERAGVPAFLETSAPRNLPFYERLGFTVTADVEVPEGPRTWCMTRKPGA

What was measured:
RAJI cells = assay: JNG assay, co-culture with RAJI cells; assay type: cell-based; conditions: JNG cells expressing construct, co-culture with Raji
How it was run: (§1)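 Jurkat-NFAT-GFP (JNG) cells stably expressing SAR constructs via lentiviral transduction and puromycin/blasticidin selection were cocultured with target cells at E:T ~1:2 for ~4–18 h. NFAT-driven GFP was measured by FACS versus parental JNG cells; scores +/- to 5+ denote ~5–50% GFP-positive cells.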

RAJI-CD19-KO cells = assay: JNG assay, co-culture with RAJI-CD19-KO cells; assay type: cell-based; conditions: co-culture with Raji-CD19-KO
How it was run: as §1

SKOV-3 cells = assay: JNG assay, co-culture with SKOV-3 cells; assay type: cell-based; conditions: co-culture with SKOV-3
Method: Cellular supernatant is collected and assayed for the induction of cytokines (e.g., IL2).
JNG (Jurkat cells expressing EGFP under an NFAT promoter) were infected with lentiviral vectors encoding different single chain and multi-chain SARs by spinfection in the presence of 8 µg/ml of Polybrene® (Sigma, Catalog no. H9268). The Jurkat-NFAT-GFP cells are engineered in such a way that the IL-2 promoter, which carries NFAT binding sites, is cloned upstream of the GFP gene. These cells have been used to study signaling via TCR and CAR. The different SARs were stably expressed in Jurkat NFAT-GFP cells by lentiviral mediated gene transfer, followed by selection with puromycin or blasticidin. No drug selection was used in case the construct lacked an antibiotic resistance gene. The SAR-expressing Jurkat-NFAT-GFP cells were cocultured with the target cells at E:T ratio of approximately 1:2 for approximately 4 hours to 18 hours. When the interaction between SIRs and their target antigen results in activation of the NFAT pathway, GFP expression is induced. […] GFP expression was monitored by FACS analysis. The Jurkat-NFAT-GFP (parental) cells were used as control. The structure of different constructs can be determined based on their names. […] The sequence of the other constructs in the table can be similarly determined from their names and by referring to the different Tables of this disclosure that provide the names and SEQ ID NO of the different modules. Alternatively, the composition and modular architecture of the different SAR constructs can be determined from their sequences by bioinformatics tools, including using nucleic acid and amino acids homology searches. A SAR is considered positive in the assay in case the SAR expressing Jurkat-NFAT-GFP cells show greater % GFP positive cells when cultured with the target cell line as compared to parental Jurkat-NFAT-GFP cells. […] In general, the number +/-, +, 2+, 3+, 4+, 5+ refer to approximately 5%, 10%, 20%, 30%, 40% and 50% GFP positive cells. The % of GFP induction in the above assay is dependent not only the relative strength of the SAR but also, among other factors, on the relative level of expression of the SAR in the JNG cells and the relative level of expression of the target antigen in the target cell line. To control for the difference in gene transduction efficiency of the different SAR constructs, the experiment was conducted with JNG cells transduced with SAR constructs co-expressing a drug resistance gene (e.g., puromycin or PAC) followed by drug selection to generate a stable population of SAR-expressing cells. It is to be noted that the drug resistance gene (e.g., PAC) in the SAR constructs is optional and in vivo studies were conducted with SAR constructs lacking the PAC gene.

Nalm6 cells = assay: JNG assay, co-culture with Nalm6 cells; assay type: cell-based; conditions: co-culture with Nalm6
How it was run: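 NFAT-driven GFP in stably SAR-transduced Jurkat cells after coculture (E:T ~1:2; ~4–18 h), measured by flow cytometry and expressed as % GFP+ cells over parental Jurkat-NFAT-GFP cells.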

L363 cells = assay: JNG assay, co-culture with L363 cells; assay type: cell-based; conditions: co-culture with L363
How it was run: as §1

KMH2 (PSMA-low) cells = assay: JNG NFAT-GFP induction on co-culture with KMH2
Huh-7 cells = assay: JNG NFAT-GFP induction on co-culture with Huh-7

Molecule	NFAT-GFP ASSAY: Raji (RAJI cells)	NFAT-GFP ASSAY: Raji-CD19-KO (RAJI-CD19-KO cells)	NFAT-GFP ASSAY: SKOV-3 (SKOV-3 cells)	NFAT-GFP ASSAY: Nalm6 (Nalm6 cells)	NFAT-GFP ASSAY: L363 (L363 cells)	NFAT-GFP ASSAY: KMH2 (KMH2 (PSMA-low) cells)	NFAT-GFP ASSAY: Huh-7 (Huh-7 cells)
B1	2+ (refer to approximately 5%, 10%, 20%, 30%, 40% and 50% GFP positive cells)	2+ (refer to approximately 5%, 10%, 20%, 30%, 40% and 50% GFP positive cells)	2+ (refer to approximately 5%, 10%, 20%, 30%, 40% and 50% GFP positive cells)	3+ (refer to approximately 5%, 10%, 20%, 30%, 40% and 50% GFP positive cells)	–	–	–
B2	–	2+ (refer to approximately 5%, 10%, 20%, 30%, 40% and 50% GFP positive cells)	2+ (refer to approximately 5%, 10%, 20%, 30%, 40% and 50% GFP positive cells)	3+ (refer to approximately 5%, 10%, 20%, 30%, 40% and 50% GFP positive cells)	+ (refer to approximately 5%, 10%, 20%, 30%, 40% and 50% GFP positive cells)	–	–
B3	–	–	–	–	–	negligible GFP induction	negligible GFP induction

From US20230212319A1, “NOVEL ANTIGEN BINDING DOMAINS AND SYNTHETIC ANTIGEN RECEPTORS INCORPORATING THE SAME” (University of Southern California, priority 2020, published 2023)
